The text below walks through data of the supplement of paper PMC9112550, “Optimization of the antimicrobial peptide Bac7 by deep mutational scanning” (BMC Biology, 2022).

For this data set, the system named is Escherichia coli TOP10. Description: shrunken log2 fold change of peptide-encoding DNA abundance (4.5 h post-induction vs induction); higher = less antimicrobial activity (less host growth inhibition). As to conditions: time post-induction: 4.5 h; library: site-saturation at positions 5, 18, 19, 20.
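Also: peptides expressed intracellularly from a pBAD plasmid library in pooled LB shake-flask culture, induced with 0.3% L-arabinose, DNA abundance read by NGS, three biological replicates, DESeq2 with apeglm shrinkage.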

RRIRLRPPRLPRPRPRPGSQPRP: the “shrunken log2 fold change” value came out at 0.0681.
In the case of RRIRMRPPRLPRPRPRPWKVPRP, the “shrunken log2 fold change” value is -0.0135.
On to RRIRSRPPRLPRPRPRPCWTPRP, for which the “shrunken log2 fold change” value was -0.306.
Regarding RRIRYRPPRLPRPRPRPCFQPRP, the “shrunken log2 fold change” value is -0.267.
On to RRIRWRPPRLPRPRPRPFAPPRP, for which the “shrunken log2 fold change” value was 0.505.
For RRIRIRPPRLPRPRPRPPNMPRP, the “shrunken log2 fold change” value is -0.422.
In the case of RRIRMRPPRLPRPRPRPVKYPRP, the “shrunken log2 fold change” value was 0.0631.
As for RRIRCRPPRLPRPRPRPHMRPRP, the figure is 0.0898; as for RRIRSRPPRLPRPRPRPDLSPRP, 0.101.
For the sequence RRIRIRPPRLPRPRPRPFSFPRP, the “shrunken log2 fold change” value is -0.742.
Consider RRIRERPPRLPRPRPRPKKQPRP, for which the “shrunken log2 fold change” value is -0.0932.
On to RRIRMRPPRLPRPRPRPSDAPRP, for which the “shrunken log2 fold change” value was determined as 0.617.
Take RRIRVRPPRLPRPRPRPWCIPRP: the “shrunken log2 fold change” value is -0.165.
As for RRIRQRPPRLPRPRPRPVDDPRP, the figure is -0.0578; as for RRIRDRPPRLPRPRPRPHGCPRP, -0.00865.
As to RRIRWRPPRLPRPRPRPRGTPRP, the “shrunken log2 fold change” value came out at 0.873.
The result for RRIRRRPPRLPRPRPRPGESPRP reads 0.0142; that for RRIRPRPPRLPRPRPRPFQCPRP, -0.0376; that for RRIRSRPPRLPRPRPRPCFYPRP, -0.39.
Consider RRIRHRPPRLPRPRPRPTQRPRP, for which the “shrunken log2 fold change” value stood at 0.462.
As to RRIRDRPPRLPRPRPRPCAQPRP, the “shrunken log2 fold change” value turned out to be 1.19.
Turning to RRIRTRPPRLPRPRPRPHFEPRP, the “shrunken log2 fold change” value is -0.323.
For the sequence RRIRTRPPRLPRPRPRPSNHPRP, the “shrunken log2 fold change” value is -0.666.
As for RRIRYRPPRLPRPRPRPHHFPRP, the “shrunken log2 fold change” value is -0.288.
RRIRKRPPRLPRPRPRPEALPRP: the “shrunken log2 fold change” value amounted to 1.67.
For RRIRARPPRLPRPRPRPGNYPRP, the “shrunken log2 fold change” value stood at 0.208.
As for RRIRPRPPRLPRPRPRPSLEPRP, the “shrunken log2 fold change” value turned out to be 0.0508.
Regarding RRIRARPPRLPRPRPRPIPWPRP, the “shrunken log2 fold change” value is 0.313.
As for RRIRSRPPRLPRPRPRPGSSPRP, the figure is -0.168; as for RRIRWRPPRLPRPRPRPCPIPRP, -0.204.
For the sequence RRIRIRPPRLPRPRPRPYLKPRP, the “shrunken log2 fold change” value was 0.000419.
Turning to RRIRVRPPRLPRPRPRPPIYPRP, the “shrunken log2 fold change” value was -0.16.
The result for RRIRFRPPRLPRPRPRPQTQPRP reads 0.0508; that for RRIRMRPPRLPRPRPRPNIAPRP, 0.397; that for RRIRKRPPRLPRPRPRPNCKPRP, 0.495.
As to RRIRFRPPRLPRPRPRPRPIPRP, the “shrunken log2 fold change” value came to 0.341.
RRIRWRPPRLPRPRPRPMCTPRP: the “shrunken log2 fold change” value was 0.356.
With RRIRERPPRLPRPRPRPSHMPRP, the “shrunken log2 fold change” value was -0.431.
With RRIRHRPPRLPRPRPRPFCVPRP, the “shrunken log2 fold change” value is -0.312.
Consider RRIRRRPPRLPRPRPRPNVEPRP, for which the “shrunken log2 fold change” value came to 0.318.
On to RRIRDRPPRLPRPRPRPHTAPRP, for which the “shrunken log2 fold change” value is -0.0443.
Regarding RRIRFRPPRLPRPRPRPWLNPRP, the “shrunken log2 fold change” value was -0.189.
The result for RRIRCRPPRLPRPRPRPQNRPRP reads -0.111; that for RRIRRRPPRLPRPRPRPKIQPRP, 0.0197; that for RRIRRRPPRLPRPRPRPRVNPRP, 0.398.
The result for RRIRHRPPRLPRPRPRPVQNPRP reads 0.171; that for RRIRQRPPRLPRPRPRPCWCPRP, -0.0854.
With RRIRDRPPRLPRPRPRPVSEPRP, the “shrunken log2 fold change” value is 0.514.
As for RRIRWRPPRLPRPRPRPDWFPRP, the “shrunken log2 fold change” value came to 0.147.
With RRIRWRPPRLPRPRPRPANIPRP, the “shrunken log2 fold change” value is -0.884.
For RRIRTRPPRLPRPRPRPWDDPRP, the “shrunken log2 fold change” value was found to be 0.033.
Take RRIRKRPPRLPRPRPRPDNYPRP: the “shrunken log2 fold change” value is -0.153.
Regarding RRIRGRPPRLPRPRPRPDHNPRP, the “shrunken log2 fold change” value came to 0.0326.
In the case of RRIRFRPPRLPRPRPRPQAPPRP, the “shrunken log2 fold change” value was found to be 0.0778.
Consider RRIRKRPPRLPRPRPRPCNFPRP, for which the “shrunken log2 fold change” value is -0.132.
Regarding RRIRHRPPRLPRPRPRPRNAPRP, the “shrunken log2 fold change” value stood at 0.184.
The result for RRIRSRPPRLPRPRPRPEHAPRP reads -0.0123; that for RRIRARPPRLPRPRPRPYNYPRP, 1.34; that for RRIRIRPPRLPRPRPRPCSHPRP, 0.0454.
As to RRIRPRPPRLPRPRPRPENLPRP, the “shrunken log2 fold change” value was -0.278.
The result for RRIRERPPRLPRPRPRPLYPPRP reads -0.458; that for RRIRARPPRLPRPRPRPDWYPRP, -0.213; that for RRIRMRPPRLPRPRPRPQHVPRP, 0.0365.
For the sequence RRIRQRPPRLPRPRPRPRDFPRP, the “shrunken log2 fold change” value came to 0.984.
For the sequence RRIRGRPPRLPRPRPRPKVMPRP, the “shrunken log2 fold change” value was 0.696.
In the case of RRIRSRPPRLPRPRPRPIGDPRP, the “shrunken log2 fold change” value amounted to 0.0153.
For the sequence RRIRKRPPRLPRPRPRPISPPRP, the “shrunken log2 fold change” value was found to be 0.305.
The result for RRIRYRPPRLPRPRPRPMRQPRP reads -0.0148; that for RRIRCRPPRLPRPRPRPEKFPRP, 0.0607.
In the case of RRIRTRPPRLPRPRPRPPMCPRP, the “shrunken log2 fold change” value came to 0.0176.
On to RRIRCRPPRLPRPRPRPHICPRP, for which the “shrunken log2 fold change” value is -0.272.
As to RRIRQRPPRLPRPRPRPNPPPRP, the “shrunken log2 fold change” value is 0.0904.
On to RRIRKRPPRLPRPRPRPIYAPRP, for which the “shrunken log2 fold change” value was 0.144.
In the case of RRIRSRPPRLPRPRPRPTLEPRP, the “shrunken log2 fold change” value stood at 0.474.
With RRIRMRPPRLPRPRPRPNHNPRP, the “shrunken log2 fold change” value is -0.687.
Take RRIRHRPPRLPRPRPRPCSAPRP: the “shrunken log2 fold change” value was -0.473.
As for RRIRKRPPRLPRPRPRPGVPPRP, the figure is 0.364; as for RRIRFRPPRLPRPRPRPQIHPRP, -0.995.
For the sequence RRIRVRPPRLPRPRPRPTGIPRP, the “shrunken log2 fold change” value is -0.115.
In the case of RRIRMRPPRLPRPRPRPWFIPRP, the “shrunken log2 fold change” value was -0.183.
As for RRIRWRPPRLPRPRPRPGNHPRP, the figure is -0.163; as for RRIRSRPPRLPRPRPRPCNQPRP, -0.391.
For the sequence RRIRLRPPRLPRPRPRPCSCPRP, the “shrunken log2 fold change” value turned out to be 0.00383.
RRIRARPPRLPRPRPRPLEVPRP: the “shrunken log2 fold change” value was determined as 0.676.
Consider RRIRARPPRLPRPRPRPYWDPRP, for which the “shrunken log2 fold change” value is -0.964.
In the case of RRIRLRPPRLPRPRPRPVVEPRP, the “shrunken log2 fold change” value came out at 0.175.
RRIRNRPPRLPRPRPRPAIAPRP: the “shrunken log2 fold change” value was determined as 0.0215.
Regarding RRIRGRPPRLPRPRPRPEGGPRP, the “shrunken log2 fold change” value came out at 1.17.
RRIRYRPPRLPRPRPRPSPMPRP: the “shrunken log2 fold change” value was -0.486.
The result for RRIRARPPRLPRPRPRPPSHPRP reads 0.351; that for RRIRRRPPRLPRPRPRPPWLPRP, 0.634.
